Reference: CN111995676A (UNIV WEIFANG MEDICAL, dated 2020)
Where a chain is given by its changes, count along the chain named.

B1: 噬菌体展示的A4抗体 (单克隆抗体A4) (antibody, V domains shown)
VH: EVQLLESGGGLVQPGGSLRLSCAASGFTFSSYAMSWVRQAPGKGLEWVSYITNNGANTSYADSVKGRFTISRDNSKNTLYLQMNSLRAEDTAVYYCAKSYATFDYWGQGTLVTVSS
VL: DIQMTQSPSSLSASVGDRVTITCRASQSISSYLNWYQQKPGKAPKLLIYNASGLQSGVPSRFSGSGSGTDFTLTISSLQPEDFATYYCQQAAYYPTTFGQGTKVEIKR
notes: also called 噬菌体展示A4抗体; A4噬菌体
B2: 噬菌体展示的A2抗体 (单克隆抗体A2) (antibody, V domains shown)
VH: B1 VH with Y50G, T52D, N53A, N54S, A56Y, N57Y, S99D, Y100A, A101Y
VL: B1 VL with N50S, G53Y, A92S, Y93A, Y94D, T96D
B3: 噬菌体展示的C3抗体 (单克隆抗体C3) (antibody, V domains shown)
VH: EVQLLESGGGLVQPGGSLRLSCAASGFTFSSYAMSWVRQAPGKGLEWVSSIASSGYYTDYADSVKGRFTISRDNSKNTLYLQMNSLRAEDTAVYYCAKDADSFDYWGQGTLVTVSS
VL: B1 VL with N50A, G53Y, A92Y, Y93S, Y94A, T96S

Biological target: T1, 牛血清白蛋白BSA (bovine, UniProt P02769 25-607)
T1 construct: also called BSA蛋白; 牛血清蛋白
T1 sequence (P02769 25-607 limits assumed): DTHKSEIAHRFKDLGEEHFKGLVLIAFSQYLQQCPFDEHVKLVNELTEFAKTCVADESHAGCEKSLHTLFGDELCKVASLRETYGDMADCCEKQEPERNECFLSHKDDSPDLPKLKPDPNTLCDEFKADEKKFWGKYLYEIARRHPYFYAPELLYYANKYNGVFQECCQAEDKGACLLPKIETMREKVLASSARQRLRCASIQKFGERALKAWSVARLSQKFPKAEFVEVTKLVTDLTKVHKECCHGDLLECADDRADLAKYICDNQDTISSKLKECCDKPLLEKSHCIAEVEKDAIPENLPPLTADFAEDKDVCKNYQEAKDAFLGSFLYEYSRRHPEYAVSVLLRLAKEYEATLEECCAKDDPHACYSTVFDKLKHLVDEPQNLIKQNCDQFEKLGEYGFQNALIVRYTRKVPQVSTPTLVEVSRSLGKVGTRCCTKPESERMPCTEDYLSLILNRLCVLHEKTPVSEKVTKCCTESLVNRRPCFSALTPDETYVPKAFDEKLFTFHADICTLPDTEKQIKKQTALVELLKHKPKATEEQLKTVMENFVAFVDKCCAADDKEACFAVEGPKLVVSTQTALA
Experiment: phage ELISA, coated protein

| Binder | binding result |
| --- | --- |
| B1 | no binding (tested: 1μg/mL coated) |
| B2 | no binding (tested: 1μg/mL coated) |
| B3 | no binding (tested: 1μg/mL coated) |
